How the values were obtained:
[1] = target: Human CD16B (NA2) on NK92mi/CD16B (NA2) cells (human) (UniProt O75015); assay: flow cytometry on NK92mi/CD16B(NA2) cells, anti-human IgG Fc detection
[2] = target: Human CD16B (NA1) on NK92mi/CD16B (NA1) cells (human) (UniProt O75015); assay: flow cytometry on NK92mi/CD16B(NA1) cells, anti-human IgG Fc detection
[3] = target: Human CD16A (V158) on NK92mi/CD16A V158 cells (human) (UniProt P08637); assay: flow cytometry on NK92mi/CD16A V158 cells, anti-human IgG Fc detection
Human CD16A (V158) on NK92mi/CD16A V158 cells (human), sequence (P08637 17-254 F176V limits assumed): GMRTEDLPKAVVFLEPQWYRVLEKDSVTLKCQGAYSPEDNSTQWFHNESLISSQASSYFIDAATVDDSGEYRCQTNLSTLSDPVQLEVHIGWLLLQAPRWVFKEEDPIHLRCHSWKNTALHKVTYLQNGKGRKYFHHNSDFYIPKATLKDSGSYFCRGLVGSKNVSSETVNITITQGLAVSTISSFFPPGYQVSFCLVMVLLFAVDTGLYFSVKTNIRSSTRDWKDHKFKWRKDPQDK

[4] = target: T1, human CD16B-His6 (SH) (human, UniProt O75015 17-200); assay: antigen ELISA, coated human CD16B-His6 (SH), HRP anti-human IgG
T1 construct: Bought ECD fragment (Sino Biologics); also called CD16B SH allotype; human CD16B (SH); not shown: six-histidine tag
T1 sequence (O75015 17-200): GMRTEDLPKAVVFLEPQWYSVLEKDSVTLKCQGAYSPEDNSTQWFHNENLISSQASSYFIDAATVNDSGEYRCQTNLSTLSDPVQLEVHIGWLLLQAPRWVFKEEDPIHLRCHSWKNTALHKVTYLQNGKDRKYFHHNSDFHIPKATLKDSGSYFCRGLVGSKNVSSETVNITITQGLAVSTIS

Human CD16B (NA2) on NK92mi/CD16B (NA2) cells (human), sequence (O75015 17-200 N65S limits assumed): as the sequence (O75015 17-200) above, with N49S counted along it
Human CD16B (NA1) on NK92mi/CD16B (NA1) cells (human), sequence (O75015 other isoform, or with tags, fused parts or gaps limits assumed): as the sequence (O75015 17-200) above, with S20R, N66D, I90V counted along it

Row | EC50 [1] | EMAX [1] | EC50 [2] | EMAX [2] | EC50 [3] | EMAX [3] | binding result [4] | Molecule
1 | 0.314 µg/mL | 7.66 | 10.3 µg/mL | 7.46 | 0.0112 µg/mL | 7.55 |  | Human IgG (antibody)
2 |  |  |  |  |  |  | no binding (tested: 1 ug/ml) | LS21 (scFv, also called positive control) scFv: EVQLVQSGAEVKKPGESLKVSCKASGYTFTSYYMHWVRQAPGQGLEWMGIINPSGGSTSYAQKFQGRVTMTRDTSTSTVYMELSSLRSEDTAVYYCARGSAYYYDFADYWGQGTLVTVSSGGGGSGGGGSGGGGSQPVLTQPSSVSVAPGQTATISCGGHNIGSKNVHWYQQRPGQSPVLVIYQDNKRPSGIPERFSGSNSGNTATLTISGTQAMDEADYYCQVWDNYSVLFGGGTKLTVL

Source: US20260008853A1 (BEONE MEDICINES I, published 2026)
